These results are taken from article doi:10.1101/2025.09.22.677823.

Experiment [1] deals with Human adenovirus 7 fiber (human adenovirus 7). The experiment is described as follows: cryo-EM structure.
The target in experiment [2] is Human adenovirus 7 penton base (human adenovirus 7). The experiment is described as follows: cryo-EM structure.

For the substance “Human adenovirus 7 fiber (natural protein)”, in experiment [1], the stoichiometry N (in general, the number of molecules, sites or subunits per partner or assembly) worked out at 3. In experiment [2], “Human adenovirus 7 penton base (natural protein)” came in with a stoichiometry N of 5.
